Data set [1] can be described thus: Circular dichroism: percentage β-sheet (k2d software). It is filed as physicochemical. On the procedure: UV circular dichroism (CD) spectra of peptide and protein solutions ([…] in H2O) were measured on a JASCO J-810 CD spectropolarimeter (Tokyo, Japan). Averaged absorption spectra of five or ten single measurements from 190-240 nm or from 190-250 nm, for fibrin peptides 85, 86, 87 or for albumin, glycated albumin and human Aβ (16-22), respectively, are recorded. The CD spectrum of Aβ (16-22) was measured as a positive control. Aβ (16-22) readily adopts amyloid fiber conformation with cross-β structure when incubated in H2O^45. For albumin and Aβ (16-22), relative percentage of the secondary structure elements present was estimated using k2d software.^48
(In general: Circular dichroism is widely used to follow secondary structure.)

Data set [2] addresses T1, tPA (Homo sapiens, UniProt P00750).
T1 construct: purchased Boehringer-Ingelheim (Germany)
As to the kind of experiment: ELISA: binding of tPA to 86-week glycated albumin-AGE preparations. Conditions: albumin incubated 86 weeks; 10 mM εACA. How it is done:
Binding of the cross-B structure marker tPA to albumin-AGE was tested using an ELISA setup. […] Therefore, we used tPA binding to these two peptides as positive control. The 86-week glycated samples and controls were coated to Greiner microlon plates (catalogue #655092, Greiner, Frickenhausen, Germany). Wells were blocked with Superblock (Pierce, Rockford, Ill., USA). All subsequent incubations were performed in PBS/0.1% (v/v) Tween 20 for one hour at room temperature while shaking, with volumes of 50 μl per well. After incubation, wells were washed five times with 300 μl PBS/0.1% (v/v) Tween 20. Increasing concentrations of tPA were added in triplicate to coated wells as well as to control wells. During tPA incubations of 86-week incubated samples, at least a 123,000 times molar excess of ε-amino caproic acid (εACA, 10 mM) was added to the solutions. εACA is a lysine analogue and is used to avoid potential binding of tPA to albumin via its kringle 2 domain.^50 Monoclonal antibody 374b (American Diagnostica, Instrumentation laboratory, Breda, The Netherlands) and, subsequently, RAMPO (Dako diagnostics, Glostrup, Denmark) was added to the wells at a concentration of 0.3 μg ml^−1. Bound peroxidase-labeled antibody was visualized using 100 μl of a solution containing 8 mg ortho-phenylene-diamine in 20 ml 50 mM citric acid/100 mM Na2HPO4 pH 5.0 with 0.0175% (v/v) H2O2. Staining was stopped upon adding 50 μl of a 2 M H2SO4 solution. Absorbance was read at 490 nm on a Vmax kinetic microplate reader (Molecular Devices, CA, USA). Background signals from non-coated control wells were substracted from corresponding coated wells.
A general note: An ELISA detects its analyte on a solid surface through an enzyme-linked reagent.

Data set [3] deals with T1, tPA. As to the kind of experiment: ELISA: binding of tPA to glycated albumin and Hb. Particulars: g6p-glycated protein immobilized. On the procedure:
Binding of tPA to albumin-g6p (four-week and 23-week incubations), albumin-glyceraldehyde, control albumin, human Hb-g6p (ten-week incubation), Hb control, or to Aβ (1-40) was tested using an enzyme-linked immunosorbent assay (ELISA) set-up. Albumin-g6p and control albumin (2.5 μg ml^−1 in coat buffer, 50 mM Na2CO3/NaHCO3 pH 9.6, 0.02% m/v NaN3, 50 μl/well) were immobilized for one hour at room temperature in 96-well protein Immobilizer plates (Exiqon, Vedbaek, Denmark). Aβ (1-40) (10 μg ml^−1 in coat buffer) was immobilized for 75 minutes at room temperature in a 96-well peptide Immobilizer plate (Exiqon, Vedbaek, Denmark). Control wells were incubated with coat buffer only. After a wash step with 200 μl of PBS/0.1% v/v Tween 20, plates were blocked with 300 μl of PBS/1% v/v Tween 20, for two hours at room temperature while shaking. All subsequent incubations were performed in PBS/0.1% v/v Tween 20 for one hour at room temperature while shaking, with volumes of 50 μl per well. After each incubation, wells were washed five times with 200 μl of PBS/0.1% v/v Tween 20. Increasing amounts of f.l. tPA or K2-P tPA was added in triplicate to coated wells and to control wells. […] Absorbance was read at 490 nm on a Vmax kinetic microplate reader (Molecular Devices, Sunnyvale, Calif., USA).

In data set [4] the test system is differentiated N1E-115 cells. In words: N1E-115 cell detachment (methylene blue staining). It is filed as cell-based, mouse. Conditions: Aβ 10 μM, plasminogen 20 μg ml−1, CpB 1 μM, 24 hours. On the procedure:
FIG. 4 is a set of graphs illustrating stimulation of tPA-mediated plasmin formation by Aβ and synergistic stimulation of cell detachment by plasminogen and Aβ. Panel A depicts that plasminogen (200 μg/ml) and tPA (200 pM) were incubated with Aβ (5 μM) or control buffer. Samples were taken from the reaction mixture at the indicated periods of time and plasmin activity was measured by conversion of the chromogenic plasmin substrate S-2251 at 405 nm. […] After 48 hours, the dead cells were washed away and the remaining adherent cells were stained with methylene blue. Plasmin cannot prevent Aβ-induced cell detachment. Panel C illustrates that N1E-115 cells were differentiated and received the indicated concentrations of plasminogen in the presence or absence of 10 μM Aβ. After 24 hours, cell detachment was assessed. […] Panel D is an immunoblot analysis of plasmin formation and laminin degradation. Differentiated N1E-115 cells were treated with or without Aβ (10 μM) in the absence or presence of added plasminogen. Addition of Aβ results in the formation of plasmin (bottom panel) and in degradation of laminin (top panel).
(§1) FIG. 5 depicts graphs illustrating that carboxypeptidase B inhibits Aβ-stimulated tPA-mediated plasmin formation and cell detachment. […] Samples were taken from the reaction mixture at the indicated periods of time and plasmin activity was measured by conversion of the chromogenic plasmin substrate S-2251 at 405 nm. The reaction was performed in the absence or the presence of 50 μg ml^−1 carboxypeptidase B (CpB) and in the absence or presence of 3.5 μM carboxypeptidase inhibitor (CPI). CpB greatly attenuates A-stimulated plasmin formation. […] After 24 hours, the cells were photographed. Panel C illustrates that, subsequently, the cells were washed once with PBS and the remaining cells were quantified as percentage-adhered cells by methylene blue staining. In Panel D, the cells were treated as in Panels B and C and medium and cell fractions were collected and analyzed by Western blot using an anti-plasmin(ogen) antibody. Aβ stimulates plasmin formation that is inhibited by CpB.
N1E-115 mouse neuroblastoma cells were routinely cultured in DMEM containing 5% FCS, supplemented with antibiotics. Cells were differentiated into post-mitotic neurons.^52 The cells were exposed to Aβ (50 μg ml^−1) for 24 hours in the presence or absence of 20 μg ml^−1 plasminogen in the presence or absence of 50 μg ml^−1 CpB. Cells were photographed, counted and lysed by the addition of 4× sample buffer (250 mM Tris pH 6.8, 8% SDS, 10% glycerol, 100 mM DTT, 0.01% w/v bromophenol blue) to the medium. The lysate, containing both adherent and floating (presumably dying and/or dead) cells, as well as the culture medium, were analyzed for the presence of plasminogen and plasmin, as well as for laminin, by Western blot analysis using specific antibodies against plasminogen (MoAb 3642, American Diagnostics), laminin (PoAb L9393, Sigma).

Data set [5] deals with T2, tPA-mediated plasminogen activation (Homo sapiens, UniProt P00750).
T2 construct: purchased Boehringer-Ingelheim (Germany)
T2 sequence (P00750 36-562): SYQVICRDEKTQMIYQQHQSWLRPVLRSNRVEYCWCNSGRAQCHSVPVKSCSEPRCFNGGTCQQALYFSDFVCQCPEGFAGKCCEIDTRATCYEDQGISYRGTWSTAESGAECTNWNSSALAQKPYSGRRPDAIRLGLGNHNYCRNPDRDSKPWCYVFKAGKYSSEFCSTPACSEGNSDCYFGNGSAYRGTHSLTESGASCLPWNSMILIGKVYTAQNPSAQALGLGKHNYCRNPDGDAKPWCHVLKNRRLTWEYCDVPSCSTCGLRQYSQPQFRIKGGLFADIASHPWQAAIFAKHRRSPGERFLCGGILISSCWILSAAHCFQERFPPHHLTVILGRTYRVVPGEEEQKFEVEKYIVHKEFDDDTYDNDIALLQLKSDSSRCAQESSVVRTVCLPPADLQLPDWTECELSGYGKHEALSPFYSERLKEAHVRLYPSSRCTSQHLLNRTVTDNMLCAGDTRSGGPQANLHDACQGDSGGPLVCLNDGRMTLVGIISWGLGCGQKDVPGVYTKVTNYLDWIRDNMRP
In words: Plasminogen activation assay. Particulars: 50 μg ml−1 CpB, 5 μM Aβ. It counts as biochemical. How it is done:
Plasminogen (200 μg ml^−1) was incubated with tPA (200 pM) in the presence or the absence of a co-factor (5 μM of either endostatin, Aβ (1-40), or one the fibrin-derived peptides 85, 86 and 87). At the indicated time intervals, samples were taken and the reaction was stopped in a buffer containing 5 mM EDTA and 150 mM εACA. After collection of the samples, a chromogenic plasmin substrate S-2251 was added and plasmin activity was determined kinetically in a spectrophotometer at 37° C.

Data set [6] deals with Aβ-stimulated plasmin formation in N1E-115 cells. As to the kind of experiment: Western blot of plasmin formation in N1E-115 cultures. It counts as cell-based, mouse. Particulars: co-incubation with CpB. How it is done: as §1
N1E-115 mouse neuroblastoma cells were routinely cultured in DMEM containing 5% FCS, supplemented with antibiotics. […] Cells were photographed, counted and lysed by the addition of 4× sample buffer (250 mM Tris pH 6.8, 8% SDS, 10% glycerol, 100 mM DTT, 0.01% w/v bromophenol blue) to the medium. […]
(A western blot detects proteins with antibodies after separation by electrophoresis.)

In data set [7] the test system is amyloid deposits in human brain inflicted by AD. As to the kind of experiment: Immunohistochemistry: binding of tPA F-EGF to human AD brain. Particulars: 7 nM construct; Congo red fluorescence to locate amyloid. On the procedure:
Paraffin brain sections of a human inflicted with AD was a kind gift of Prof. Slootweg (Dept. of Pathology, UMC Utrecht). Sections were deparaffinized in a series of xylene-ethanol. Endogenous peroxidases were blocked with methanol/1.5% H2O2 for 15 minutes. After rinsing in H2O, sections were incubated with undiluted formic acid for ten minutes, followed by incubation in PBS for five minutes. Sections were blocked in 10% HPS in PBS for 15 minutes. Sections were exposed for two hours with 7 nM of tPA F-EGF-GST or GST in PBS/0.3% BSA. After three wash steps with PBS, sections were overlayed with 200 ng ml^−1 anti-GST antibody Z-5, for one hour. After washing, ready-to-use goat anti-rabbit Powervision (Immunologic, Duiven, The Netherlands, catalogue #DPVR-55AP) was applied and incubated for one hour. After washing, sections were stained for ten minutes with 3,3′-diamino benzidine (Sigma-Aldrich, St Louis, Mo., USA, catalogue #D-5905), followed by hematoxylin staining for ten seconds. After washing with H2O, sections were incubated with Congo red according to the manufacturer's recommendations (Sigma Diagnostics, St Louis, Mo., USA). […] Analysis of sections was performed on a Leica DMIRBE fluorescence microscope (Rijswijk, The Netherlands). Fluorescence of Congo red was analyzed using an excitation wavelength of 596 nm and an emission wavelength of 620 nm.

Data set [8] has as its target T3, mΔIAPP (Mus musculus, UniProt P12968).
T3 construct: purchased Pepscan, Inc. or peptide synthesis facility of the Netherlands Cancer Institute; host or cells: chemical synthesis
In words: Amyloid ELISA with tPA F-EGF-GST: non-amyloid control. It counts as binding. How it is done: In order to define the affinity of the purified tPA F-EGF-GST recombinant protein, ELISAs were performed with immobilized amyloid (poly)peptides and non-amyloid control ΔmIAPP. Twenty-five μg ml^−1 of Aβ, FP13, IAPP or ΔmIAPP was immobilized on Exiqon peptide immobilizer plates. A concentration series of tPA F-EGF-GST in the presence of excess εACA was added to the wells and binding was assayed using anti-GST antibody Z-5. As a control, GST (Sigma-Aldrich, St. Louis, Mo., USA, catalogue #G-5663) was used at the same concentrations.

Data set [9] addresses T4, Aβ fibrils (Homo sapiens, UniProt P05067).
T4 construct: Peptide Aβ (1-40), containing amino acids as present in the described human Alzheimer peptide; purchased Pepscan, Inc. (The Netherlands) or peptide synthesis facility at the Netherlands Cancer Institute; host or cells: synthetic peptide
As to the kind of experiment: Amyloid pull-down with insoluble Aβ fibers. It is filed as binding. Conditions: conditioned BHK medium. On the procedure: Conditioned medium of BHK cells expressing GST-tagged tPA F, F-EGF, EGF, K1, F-EGF-K1, FXII F, HGFa F, Fn F4, Fn F5, Fn F4-5 and GST was used for amyloid binding assays. At first, constructs were adjusted to approximately equal concentration using Western blots. Qualitative binding of the recombinant fragments were evaluated using a “pull-down” assay. To this end, the recombinantly made fragments were incubated with either Aβ or IAPP fibrils. Since these peptides form insoluble fibers, unbound proteins can be easily removed from the fibers following centrifugation. The pellets containing the bound fragments were subsequently washed several times. Bound fragments were solubilized in SDS-sample buffer and analyzed by PAGE, as were unbound proteins in the supernatant fraction and starting material. The gels were analyzed using immunoblotting analysis with the anti-GST antibody Z-5.

T1 sequence (P00750 36-562): as above
T4 sequence (P05067 672-711): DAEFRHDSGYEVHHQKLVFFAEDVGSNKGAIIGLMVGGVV

On to Albumin-g6p, for which the “β-sheet (%)” value in data set [1] (incubation time 2 weeks) came out at 0%; in data set [1] (incubation time 4 weeks), 7%; in data set [1] (incubation time 23 weeks), 19%. For the same molecule, the “binding of amyloid-specific serine protease tPA” value in data set [2] is listed as “bound specifically”. Besides, the tPA binding entry in [3] is on record as “high-affinity tPA binding”.

B1: CpB: porcine pancreas carboxypeptidase B from Roche (protein, UniProt P09955 111-416, looked up)
Carboxypeptidase B: TTGHSYEKYNNWETIEAWTKQVTSENPDLISRTAIGTTFLGNNIYLLKVGKPGPNKPAIFMDCGFHAREWISHAFCQWFVREAVLTYGYESHMTEFLNKLDFYVLPVLNIDGYIYTWTKNRMWRKTRSTNAGTTCIGTDPNRNFDAGWCTTGASTDPCDETYCGSAAESEKETKALADFIRNNLSSIKAYLTIHSYSQMILYPYSYDYKLPENNAELNNLAKAAVKELATLYGTKYTYGPGATTIYPAAGGSDDWAYDQGIKYSFTFELRDKGRYGFILPESQIQATCEETMLAIKYVTNYVLGHL
B1: in data set [4], the “cell detachment induced by plasminogen and Aβ” value was “completely prevented”. Further, the “Aβ-stimulated generation of plasmin in the presence of CpB” value in [5] is listed as “greatly diminished”. Besides, in [6], the “Aβ-stimulated plasmin formation in the medium and on the cells” value was “complete inhibition”.

B2: tPA F-EGF-GST: tPA F-EGF domains with C-terminal GST tag, expressed in BHK cells and purified (protein)
chain: SYQVICRDEKTQMIYQQHQSWLRPVLRSNRVEYCWCNSGRAQCHSVPVKSCSEPRCFNGGTCQQALYFSDFVCQCPEGFAGKCCEID
modifications: left off: small tags and cut ends; a dimerising Fc or GST
notes: tPA F-EGF domains with C-terminal GST tag, expressed in BHK cells and purified
Turning to B2, the “binding to amyloid deposits in AD brain sections” value in data set [7] is listed as “positive for tPA F-EGF-GST binding”. Also, the “binding to non-amyloid mΔIAPP” value in [8] is “No binding”. Also, the “binding to Aβ fibers (pull-down, Western blot)” value in data set [9] was “Efficient binding”.

These data come from US8158585B2, “Cross-β structure comprising amyloid-binding proteins and methods for detection of the cross-β structure, for modulating cross-β structures fiber formation and modulating cross-β structure-mediated toxicity” (CrossBeta Biosciences B.V., priority 2002, dated 2012).
